Reference: patent publication US10941182 (Amgen, dated 2021)
Where two headings read alike, the source gives them in different places. Non-standard residues stand in square brackets, D forms with d. *: point of attachment. Oic = O=C(O)[C@@H]1C[C@@H]2CCCC[C@@H]2N1; Phe(4-Cl) = N[C@@H](Cc1ccc(Cl)cc1)C(=O)O; NMeR = CN[C@@H](CCCNC(=N)N)C(=O)O; Tridecanoyl = CCCCCCCCCCCCC(=O)*; Cha = N[C@@H](CC1CCCCC1)C(=O)O; Nle = CCCC[C@H](N)C(=O)O; AEEA = NCCOCCOCC(=O)O; Aib = CC(C)(N)C(=O)O

B1: Acetylated version of peptide in Fc-peptide conjugate #1 (SEQ ID NO: 70) (peptide)
peptide: QRPRLSHKGPXPF
modifications: {Acetyl-NH}Q[r]P[hArg][aMeLeu]SHKGP[Nle] P[4-Cl-F]{COOH}: N-terminal acetyl; r = D-Arg; hArg, aMeLeu, Nle, 4-Cl-F non-canonical; free C-terminal acid
B2: Acetylated version of peptide in Fc-peptide conjugate #3 (SEQ ID NO: 95) (peptide)
peptide: QRPRLSHKGPXPF
modifications: {Acetyl-NH}Q[NMehArg]P[NMeArg][aMeLeu]SHKGP[Nle]P[4-Cl-F]{COOH: N-terminal acetyl; NMehArg, NMeArg, aMeLeu, Nle, 4-Cl-F non-canonical; free C-terminal acid
B3: modified apelin polypeptide SEQ ID NO: 547 (peptide)
peptide: Tridecanoyl-[dE][AEEA][AEEA][dQ]RP[NMeR][Cha]SHKG[Oic][Nle][Aib][Phe(4-Cl)]-OH
SMILES: CCCCCCCCCCCCC(=O)N[C@H](CCC(=O)O)C(=O)NCCOCCOCC(=O)NCCOCCOCC(=O)N[C@H](CCC(N)=O)C(=O)N[C@@H](CCCNC(=N)N)C(=O)N1CCC[C@H]1C(=O)N(C)[C@@H](CCCNC(=N)N)C(=O)N[C@@H](CC1CCCCC1)C(=O)N[C@@H](CO)C(=O)N[C@@H](Cc1c[nH]cn1)C(=O)N[C@@H](CCCCN)C(=O)NCC(=O)N1[C@H](C(=O)N[C@@H](CCCC)C(=O)NC(C)(C)C(=O)N[C@@H](Cc2ccc(Cl)cc2)C(=O)O)C[C@@H]2CCCC[C@@H]21

Experiments:
Assay in all cases: cell-based or functional assay
rat APJ receptor [1] = biological target: T1, rat APJ receptor (rat, UniProt Q9JHG3 1-377)
T1 sequence (looked up): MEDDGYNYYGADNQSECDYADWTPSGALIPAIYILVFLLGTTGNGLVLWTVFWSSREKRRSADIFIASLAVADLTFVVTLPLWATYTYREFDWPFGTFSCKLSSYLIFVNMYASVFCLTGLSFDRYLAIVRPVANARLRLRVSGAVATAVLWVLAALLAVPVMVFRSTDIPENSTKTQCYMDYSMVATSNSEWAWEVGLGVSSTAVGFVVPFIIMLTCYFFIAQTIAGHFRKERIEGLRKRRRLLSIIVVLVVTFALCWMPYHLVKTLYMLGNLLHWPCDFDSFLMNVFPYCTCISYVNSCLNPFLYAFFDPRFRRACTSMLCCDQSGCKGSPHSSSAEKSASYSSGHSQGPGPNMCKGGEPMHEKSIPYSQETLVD

human APJ receptor [2] = biological target: T2, human APJ receptor (human, UniProt P35414 1-380)
T2 sequence (looked up): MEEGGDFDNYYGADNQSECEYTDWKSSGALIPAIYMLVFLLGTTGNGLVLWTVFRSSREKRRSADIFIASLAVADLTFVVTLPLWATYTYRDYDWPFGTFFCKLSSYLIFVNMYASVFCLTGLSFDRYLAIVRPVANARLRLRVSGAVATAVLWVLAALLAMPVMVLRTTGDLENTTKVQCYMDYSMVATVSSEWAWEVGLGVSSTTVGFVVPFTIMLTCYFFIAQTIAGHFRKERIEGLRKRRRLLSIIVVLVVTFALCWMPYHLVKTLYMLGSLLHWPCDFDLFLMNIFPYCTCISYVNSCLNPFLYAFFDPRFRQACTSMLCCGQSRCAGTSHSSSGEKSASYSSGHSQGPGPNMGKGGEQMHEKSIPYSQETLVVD

human APJ receptor [3] = biological target: T2, human APJ receptor; remark: listed apart in the source
rat APJ receptor [4] = biological target: T1, rat APJ receptor; remark: listed apart in the source

Binder	EC50 Rat APJ Receptor (µM), GTPγS assay (rat APJ receptor [1])	EC50 Human APJ Receptor (µM), GTPγS assay (human APJ receptor [2])	EC50 Human APJ Receptor (µM), GTPγS assay (human APJ receptor [3])	EC50 Rat APJ Receptor (µM), GTPγS assay (rat APJ receptor [4])
B1	0.00974 µM			
B2	0.00393 µM			
Ac-QRP[NMeR][Cha]SHKG[Oic][Nle][Aib][Phe(4-Cl)]-OH [Acetylated version of peptide in Fc-peptide conjugate #4 (SEQ ID NO: 92)]	0.00323 µM	0.000679 µM		
B3			0.000404 µM	0.00133 µM
